# Laboratory results as given in paper PMC4951027.
# Tests used:
# [1] = molecular target: ecto-domain of integrin α5β1-Fc fusion protein; test: SPR
# [2] = molecular target: Fn N-terminal domain fragment (Fn-NTD) (human); test: SPR; conditions: domain or fragment
# Sequence of Fn N-terminal domain fragment (Fn-NTD) (human) (P02751 32-290): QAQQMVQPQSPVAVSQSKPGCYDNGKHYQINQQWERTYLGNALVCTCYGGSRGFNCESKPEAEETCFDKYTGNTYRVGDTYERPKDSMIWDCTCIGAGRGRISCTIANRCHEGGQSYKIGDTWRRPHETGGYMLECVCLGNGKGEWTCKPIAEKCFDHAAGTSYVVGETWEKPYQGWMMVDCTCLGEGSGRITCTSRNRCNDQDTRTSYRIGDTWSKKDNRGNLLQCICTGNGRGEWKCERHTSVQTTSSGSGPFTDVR
Substance,Kd [1] [µM],"ka1 (first step, bivalent analyte model) [1] [M⁻¹ s⁻¹]","ka2 (second step, bivalent analyte model) [1] [RU^-1s^-1]","kd1 (first step, bivalent analyte model) [1] [s⁻¹]","kd2 (second step, bivalent analyte model) [1] [s⁻¹]",Kd [2] [µM]
Fn + BBK32 (BBK32-bound Fn) (from UniProt O50835 21-205) (complex),0.17,75000,8e-06,0.012,0.001,
GST-FnBPA-3,,,,,,10
